# Assay results from patent EP0946727B1.
# Legend:
# human CD11a (human) [1] = target: human CD11a (human) (UniProt P20701); assay: cell-based or functional assay
# human CD11a (human) [2] = target: human CD11a (human) (UniProt P20701); assay: FACScan on Jurkat cells
# human CD11a (human) [3] = target: human CD11a (human) (UniProt P20701); assay: saturation binding, human lymphocytes, donor 2, Kd(app)
# human CD11a (human) [4] = target: human CD11a (human) (UniProt P20701); assay: binding to Jurkat cells (FACScan)
# human CD11a (human) [5] = target: human CD11a (human) (UniProt P20701); assay: cell binding, human CD11a
# human CD11a (human) [6] = target: human CD11a (human) (UniProt P20701); assay: saturation binding of 125I-antibody to human peripheral blood mononuclear cells, Kd(app)
# human CD11a (human) [7] = target: human CD11a (human) (UniProt P20701); assay: saturation binding, human lymphocytes, donor 1, Kd(app)
# human CD11a (human) [8] = target: human CD11a (human) (UniProt P20701); assay: blocking of Jurkat cell adhesion to human keratinocytes (ICAM-1)
# rhesus CD18 (rhesus) [9] = target: rhesus CD18 (rhesus) (UniProt H9Z8N5); assay: blocking of rhesus lymphocyte adhesion to human keratinocytes
# rhesus CD18 (rhesus) [10] = target: rhesus CD18 (rhesus) (UniProt H9Z8N5); assay: blocking of rhesus lymphocyte adhesion to recombinant human ICAM-1 on plates
# Chain of humanized MHM24 IgG1 (antibody) (main, form in doubt): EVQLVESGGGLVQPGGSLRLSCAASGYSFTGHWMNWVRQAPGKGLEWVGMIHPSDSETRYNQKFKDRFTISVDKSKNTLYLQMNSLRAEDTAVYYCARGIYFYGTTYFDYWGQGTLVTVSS
# Chain of humanized MHM24 IgG1 (antibody) (main, form in doubt): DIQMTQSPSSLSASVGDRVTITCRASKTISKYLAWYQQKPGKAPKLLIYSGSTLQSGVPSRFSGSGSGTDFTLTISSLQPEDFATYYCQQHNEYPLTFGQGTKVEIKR
# Chain of human CD11a (human) (P20701 26-1170): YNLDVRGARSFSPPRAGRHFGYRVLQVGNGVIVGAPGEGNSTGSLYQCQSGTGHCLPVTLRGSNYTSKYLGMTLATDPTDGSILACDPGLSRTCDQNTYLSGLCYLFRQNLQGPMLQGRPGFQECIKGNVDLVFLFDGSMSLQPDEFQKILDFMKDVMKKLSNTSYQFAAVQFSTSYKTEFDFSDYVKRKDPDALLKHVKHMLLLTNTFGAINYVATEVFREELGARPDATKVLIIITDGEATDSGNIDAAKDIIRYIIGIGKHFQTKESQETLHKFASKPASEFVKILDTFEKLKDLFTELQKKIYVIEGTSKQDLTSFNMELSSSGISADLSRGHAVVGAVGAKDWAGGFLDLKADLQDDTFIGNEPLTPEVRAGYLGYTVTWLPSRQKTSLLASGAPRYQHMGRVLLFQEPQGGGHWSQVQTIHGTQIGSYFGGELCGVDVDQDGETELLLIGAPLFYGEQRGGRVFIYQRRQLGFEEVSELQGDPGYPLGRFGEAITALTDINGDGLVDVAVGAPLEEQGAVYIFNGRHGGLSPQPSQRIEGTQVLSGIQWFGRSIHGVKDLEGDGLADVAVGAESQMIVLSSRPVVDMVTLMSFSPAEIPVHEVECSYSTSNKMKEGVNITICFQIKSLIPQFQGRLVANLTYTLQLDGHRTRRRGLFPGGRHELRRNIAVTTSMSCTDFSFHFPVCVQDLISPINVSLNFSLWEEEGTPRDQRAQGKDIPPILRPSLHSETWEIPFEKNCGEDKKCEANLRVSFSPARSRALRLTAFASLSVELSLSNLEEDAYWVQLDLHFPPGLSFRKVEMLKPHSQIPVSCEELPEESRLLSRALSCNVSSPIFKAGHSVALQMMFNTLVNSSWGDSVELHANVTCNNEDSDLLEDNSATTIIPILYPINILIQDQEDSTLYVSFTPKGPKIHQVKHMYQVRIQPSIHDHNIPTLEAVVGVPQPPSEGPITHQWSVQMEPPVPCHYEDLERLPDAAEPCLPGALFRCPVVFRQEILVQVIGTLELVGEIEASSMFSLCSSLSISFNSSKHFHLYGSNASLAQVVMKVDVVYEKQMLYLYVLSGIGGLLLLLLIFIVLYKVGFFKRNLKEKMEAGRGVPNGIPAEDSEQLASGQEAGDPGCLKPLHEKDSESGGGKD
# Chain of chimeric MHM24 IgG1 (antibody) (main, form in doubt): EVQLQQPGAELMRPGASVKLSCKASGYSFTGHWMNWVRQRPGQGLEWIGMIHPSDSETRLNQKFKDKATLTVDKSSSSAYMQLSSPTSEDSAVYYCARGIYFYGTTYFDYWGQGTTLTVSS
# Chain of chimeric MHM24 IgG1 (antibody) (main, form in doubt): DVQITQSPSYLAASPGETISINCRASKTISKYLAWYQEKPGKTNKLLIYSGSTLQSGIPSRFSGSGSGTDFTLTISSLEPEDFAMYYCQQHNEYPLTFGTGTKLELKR
Substance,"IC50, human mixed lymphocyte response (MLR) (human CD11a (human) [1]) [nM]",EC50 F(ab)/EC50 F(ab)-2 (human CD11a (human) [2]),Kd (human CD11a (human) [3]) [nM],EC50 (human CD11a (human) [4]) [nM],Var.EC50/HuIgG1 EC50 (human CD11a (human) [5]),Kd (human CD11a (human) [6]) [nM],Kd (human CD11a (human) [7]) [nM],IC50 (human CD11a (human) [8]) [nM],IC50 (rhesus CD18 (rhesus) [9]) [nM],IC50 (rhesus CD18 (rhesus) [10]) [nM],EC50 (human CD11a (human) [2]) [ng/mL]
humanized MHM24 IgG1 (antibody),0.38,0.004,0.18,0.042,1,0.15,0.11,0.13,,,
murine MHM24 (antibody),0.19,,0.13,,,0.15,0.16,0.09,,,
murine anti-human CD18 antibody MHM23,,,,,,,,,1.6,1.2,
chimeric MHM24 IgG1 (antibody),,0.006,,,,,,0.1,,,5.2
